Laboratory results published in patent publication US20100061996A1.
Blank lines part the entries; values can stand above or below the substance they belong to.

What was measured:
Experiment in all cases: cell-based or functional assay
[1] = target: endogenous full-length hepsin on the surface of LnCaP-17 cells (human) (UniProt P05981)
[2] = target: full-length hepsin on the surface of LnCaP-34 cells (transfected full-length hepsin with C-terminal Flag tag plus endogenous hepsin) (human) (UniProt P05981)
Sequence of full-length hepsin on the surface of LnCaP-34 cells (transfected full-length hepsin with C-terminal Flag tag plus endogenous hepsin) (human) (P05981 whole entry): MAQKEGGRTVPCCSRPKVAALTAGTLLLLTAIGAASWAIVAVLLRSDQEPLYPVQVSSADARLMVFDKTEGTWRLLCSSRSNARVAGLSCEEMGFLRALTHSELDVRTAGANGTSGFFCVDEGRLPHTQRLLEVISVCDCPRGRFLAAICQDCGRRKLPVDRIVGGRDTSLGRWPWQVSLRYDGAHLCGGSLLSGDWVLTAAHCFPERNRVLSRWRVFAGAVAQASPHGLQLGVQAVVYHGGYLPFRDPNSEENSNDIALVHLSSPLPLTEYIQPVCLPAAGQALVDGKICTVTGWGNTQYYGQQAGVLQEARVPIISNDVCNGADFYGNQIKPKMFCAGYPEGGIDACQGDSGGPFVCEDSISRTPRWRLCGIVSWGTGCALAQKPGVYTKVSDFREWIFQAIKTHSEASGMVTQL

[3] = target: pro-uPA (pro-urokinase-type plasminogen activator, single-chain zymogen form of uPA) (UniProt P00749)

Sequence of endogenous full-length hepsin on the surface of LnCaP-17 cells (human) (P05981 whole entry): as above

Rate of pro-uPA activation per 10^6 cells, LnCaP-17, with 1 uM KD1 [1]: 0.2 nM uPA hr^-1
Rate of pro-uPA activation per 10^6 cells, LnCaP-34, with 1 uM KD1 [2]: 0.2 nM uPA hr^-1
Substance: KD1, Kunitz domain-1 derived from HAI-1B (from UniProt O43278 246-303)

Rate of pro-uPA activation per 10^6 cells, LnCaP-17, control [3]: 2.4 nM uPA hr^-1
Substance: endogenous full-length hepsin on the surface of LnCaP-17 cells (from UniProt P05981 1-417) (enzyme)

Rate of pro-uPA activation per 10^6 cells, LnCaP-34, control [3]: 6.6 nM uPA hr^-1
Substance: full-length hepsin on the surface of LnCaP-34 cells (transfected full-length hepsin with C-terminal Flag tag plus endogenous hepsin) (from UniProt P05981 1-417) (enzyme)
